3 molecules from patent publication US20150191543A1 (University of California, published 2015) can be followed below.

Assay [1] deals with T1, soluble CD8αβ heterodimer fusion protein (mouse, UniProt P01731 28-151; P10300 22-138). Description: SPR, Biacore 3000; minibody captured by goat anti-mouse IgG Fc, sCD8αβ as analyte at 0-100 nM. The procedure: FIG. 15A-to FIG. 15C depict the kinetic analysis of minibody binding to sCD8αβ antigen using SPR Biacore 3000. […] Soluble monovalent antigen was then flowed over the chip at 100 (green), 50 (magenta), 25 (red), 12.5 (dark blue), 6.25 (light blue), and 0 (black) nM.
T1 sequence (P10300 other isoform, or with tags, fused parts or gaps): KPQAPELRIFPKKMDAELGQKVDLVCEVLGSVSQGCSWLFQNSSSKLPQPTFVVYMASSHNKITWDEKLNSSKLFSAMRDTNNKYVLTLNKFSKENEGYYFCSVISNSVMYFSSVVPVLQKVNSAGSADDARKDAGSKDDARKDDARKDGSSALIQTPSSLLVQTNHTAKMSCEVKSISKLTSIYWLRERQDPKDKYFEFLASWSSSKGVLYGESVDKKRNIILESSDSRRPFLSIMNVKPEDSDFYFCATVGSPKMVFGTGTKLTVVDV
(§1) Surface Plasmon Resonance (SPR) analysis was performed on a Biacore 3000 (Precision Antibody, Inc.). Briefly, Mbs were captured using goat anti-mouse IgG Fc and sCD8αβ antigen was flowed over the chip at 100, 50, 25, 12.5, 6.25 and 0 nM. The equilibrium constant (KD) was calculated from the observed on (kₐ) and off (kd) rates.

Assay [2] addresses T1, soluble CD8αβ heterodimer fusion protein. Description: SPR, Biacore 3000; minibody captured by goat anti-mouse IgG Fc, soluble monomeric sCD8αβ flowed at 0-100 nM. The procedure: as §1
SPR kinetic analysis was performed using the Biacore 3000 with immobilized minibody and soluble monomeric sCD8αβ.
For orientation: SPR reads the build-up and loss of mass on a sensor chip optically.

The target in assay [3] is T2, mouse CD8α, Lyt2.1 allele (mouse, UniProt P01731 28-247).
T2 construct: Position 78 is counted on mature CD8a, not on the precursor; On the cells it is paired with CD8β (TK-1 is Lyt2.1+, Lyt3+); also called CD8a Lyt2.1; CD8-Lyt2.1
T2 sequence (P01731 28-247 M105V limits assumed): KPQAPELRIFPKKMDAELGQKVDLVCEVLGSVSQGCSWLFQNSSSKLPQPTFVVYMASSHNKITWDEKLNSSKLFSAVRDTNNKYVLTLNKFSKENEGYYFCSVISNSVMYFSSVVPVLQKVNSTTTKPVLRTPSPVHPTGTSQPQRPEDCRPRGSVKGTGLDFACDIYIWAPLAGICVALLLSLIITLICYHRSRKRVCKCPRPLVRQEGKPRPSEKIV
Description: statement in Example 5; supported there only by in vivo immunoPET and biodistribution in C3H mice.

Assay [4] concerns the target T3, mouse CD8α, Lyt2.2 allele (mouse, UniProt P01731 28-247).
T3 construct: On the cells it is paired with CD8β (BW58 is Lyt2.2+, Lyt3+); also called CD8a Lyt2.2; CD8-Lyt2.2
Description: statement in Example 5; supported there only by in vivo immunoPET and biodistribution in C57Bl/6 mice.

T3 sequence (P01731 28-247 limits assumed): as the sequence (P01731 28-247 M105V limits assumed) above, with V78M counted along it

B1: anti-mCD8 YTS 169 minibody (other)
scFv: EVKLQESGGGLVQPGRSLKLSCAASGFNFNDYWMGWVRQAPGKGLEWIGEINKDSSTINYTPSLKDKFTISRDNAQNTLYLQMSKLGSEDTAIYYCARARGMMVLIIPHYFDYWGQGVMVTVSSGSTSGGGSGGGSGGGGSSDIVLTQSPAMAMSPGERITISCRASESVSTRMHWYQQKPGQQPKLLIYGASNLESGVPARFSGSGSGTDFTLTIDPVEANDTATYFCQQSWYDPWTFGGGTKLELKLEPRGPTIKPCPPCKCPAPNLLGGPGSVRAPQVYVLPPPEEEMTKKQVTLTCMVTDFMPEDIYVEWTNNGKTELNYKNTEPVLDSDGSYFMYSKLRVEKKNWVERNSYSCSVVHEGLHNYHTTKSFSRTPGKAAAAGHLPETGAGHHHHHHAAA
notes: Minibody (scFv-hinge-CH3 homodimer); also called YTS169 Mb
Take B1: in assay [1], the Ka was determined as 3e+07 M⁻¹; the koff (as a rule, the first-order rate constant of dissociation) was found to be 0.0076 s⁻¹; the kon (as a rule, a measure of how fast the partners come together) was determined as 230000 M⁻¹ s⁻¹. In assay [2], binding was put at a Kd of 33 nM.

B2: anti-mCD8 2.43 Cys-diabody (other)
scFv: EVQLVESGGGLVQPGRSLKLSCAASGFTFSNYYMAWVRQAPTKGLEWVAYINTGGGTTYYRDSVKGRFTISRDDAKSTLYLQMDSLRSEDTATYYCTTAIGYYFDYWGQGVMVTVSSGGGGSDIQLTQSPASLSASLGETVSIECLASEDIYSYLAWYQQKPGKSPQVLIYAANRLQDGVPSRFSGSGSGTQYSLKISGMQPEDEGDYFCLQGSKFPYTFGAGTKLELKAAAGCGGHHHHHH
notes: Cys-diabody (scFv dimer, about 51 kDa)
For B2, the binding result in assay [3] is reported as “no binding”; in assay [4], “binds”.

B3: anti-mCD8 2.43 minibody (other)
scFv: EVQLVESGGGLVQPGRSLKLSCAASGFTFSNYYMAWVRQAPTKGLEWVAYINTGGGTTYYRDSVKGRFTISRDDAKSTLYLQMDSLRSEDTATYYCTTAIGYYFDYWGQGVMVTVSSGSTSGGGSGGGSGGGGSSDIQLTQSPASLSASLGETVSIECLASEDIYSYLAWYQQKPGKSPQVLIYAANRLQDGVPSRFSGSGSGTQYSLKISGMQPEDEGDYFCLQGSKFPYTFGAGTKLELKLEPRGPTIKPCPPCKCPAPNLLGGPGSVRAPQVYVLPPPEEEMTKKQVTLTCMVTDFMPEDIYVEWTNNGKTELNYKNTEPVLDSDGSYFMYSKLRVEKKNWVERNSYSCSVVHEGLHNYHTTKSFSRTPGKAAAAGHLPETGAGHHHHHHAAA
notes: Minibody (scFv-hinge-CH3 homodimer, about 80 kDa; 19% higher multimers); Some assays used the NOTA/64Cu-labelled or FITC-labelled protein
As to B3, in assay [1], the Ka worked out at 3e+07 M⁻¹, the koff was found to be 0.0041 s⁻¹ and the kon was found to be 120000 M⁻¹ s⁻¹. The dissociation constant (Kd) – broadly, the concentration at which binding is half-saturated – in assay [2] came out at 34 nM.
